The values below are quoted from earlier work in publication doi:10.64898/2025.12.23.696170.

One data set addresses ATR2 (Homo sapiens) (UniProt P50052).
A further data set concerns the target ATR1 (Homo sapiens) (UniProt P30556).
UniProt P30556, sequence (P30556 whole entry): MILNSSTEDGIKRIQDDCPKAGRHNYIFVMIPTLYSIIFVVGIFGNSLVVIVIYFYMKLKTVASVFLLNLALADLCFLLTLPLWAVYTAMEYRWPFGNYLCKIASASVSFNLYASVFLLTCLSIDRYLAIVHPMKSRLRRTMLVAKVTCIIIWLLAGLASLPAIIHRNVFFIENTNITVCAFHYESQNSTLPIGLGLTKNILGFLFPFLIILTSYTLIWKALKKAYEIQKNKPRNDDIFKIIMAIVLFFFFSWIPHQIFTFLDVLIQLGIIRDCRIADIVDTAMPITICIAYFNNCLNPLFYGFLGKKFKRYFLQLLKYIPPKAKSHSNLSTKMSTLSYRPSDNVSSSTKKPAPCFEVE

UniProt P50052, sequence (P50052 whole entry): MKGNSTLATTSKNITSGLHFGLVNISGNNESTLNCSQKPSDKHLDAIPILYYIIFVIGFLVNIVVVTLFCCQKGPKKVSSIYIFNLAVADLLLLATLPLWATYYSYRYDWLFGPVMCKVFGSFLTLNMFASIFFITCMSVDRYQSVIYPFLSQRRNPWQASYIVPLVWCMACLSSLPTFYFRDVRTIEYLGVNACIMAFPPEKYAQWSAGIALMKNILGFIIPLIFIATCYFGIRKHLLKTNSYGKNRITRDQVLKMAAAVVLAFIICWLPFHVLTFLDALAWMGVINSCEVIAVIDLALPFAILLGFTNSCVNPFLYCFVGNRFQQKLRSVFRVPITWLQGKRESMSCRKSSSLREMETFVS

For Angiotensin II (from UniProt P01019), the figures for the Ki with ATR2 (Homo sapiens) and in the data set with ATR1 (Homo sapiens) were 300 pM and 200 pM, respectively.
